Measurements reported in paper PMC7949109, “Trans-2-enoyl-CoA reductase limits Ca^2+ accumulation in the endoplasmic reticulum by inhibiting the Ca^2+ pump SERCA2b” (The Journal of Biological Chemistry, 2021).

Target: T1, PA-SERCA2b (recombinant SERCA2b with an N-terminal PA-tag) (human, UniProt P16615-1 1-1042)
T1 construct: human SERCA2b; cDNA in the pFastBac1 vector; source: Sf21 cells (baculovirus), solubilised with DDM, purified on anti-PA-tag NZ-1 Sepharose, eluted with PA-tag peptide; not shown: PA-tag, N-terminal, kept
T1 sequence (P16615 whole entry): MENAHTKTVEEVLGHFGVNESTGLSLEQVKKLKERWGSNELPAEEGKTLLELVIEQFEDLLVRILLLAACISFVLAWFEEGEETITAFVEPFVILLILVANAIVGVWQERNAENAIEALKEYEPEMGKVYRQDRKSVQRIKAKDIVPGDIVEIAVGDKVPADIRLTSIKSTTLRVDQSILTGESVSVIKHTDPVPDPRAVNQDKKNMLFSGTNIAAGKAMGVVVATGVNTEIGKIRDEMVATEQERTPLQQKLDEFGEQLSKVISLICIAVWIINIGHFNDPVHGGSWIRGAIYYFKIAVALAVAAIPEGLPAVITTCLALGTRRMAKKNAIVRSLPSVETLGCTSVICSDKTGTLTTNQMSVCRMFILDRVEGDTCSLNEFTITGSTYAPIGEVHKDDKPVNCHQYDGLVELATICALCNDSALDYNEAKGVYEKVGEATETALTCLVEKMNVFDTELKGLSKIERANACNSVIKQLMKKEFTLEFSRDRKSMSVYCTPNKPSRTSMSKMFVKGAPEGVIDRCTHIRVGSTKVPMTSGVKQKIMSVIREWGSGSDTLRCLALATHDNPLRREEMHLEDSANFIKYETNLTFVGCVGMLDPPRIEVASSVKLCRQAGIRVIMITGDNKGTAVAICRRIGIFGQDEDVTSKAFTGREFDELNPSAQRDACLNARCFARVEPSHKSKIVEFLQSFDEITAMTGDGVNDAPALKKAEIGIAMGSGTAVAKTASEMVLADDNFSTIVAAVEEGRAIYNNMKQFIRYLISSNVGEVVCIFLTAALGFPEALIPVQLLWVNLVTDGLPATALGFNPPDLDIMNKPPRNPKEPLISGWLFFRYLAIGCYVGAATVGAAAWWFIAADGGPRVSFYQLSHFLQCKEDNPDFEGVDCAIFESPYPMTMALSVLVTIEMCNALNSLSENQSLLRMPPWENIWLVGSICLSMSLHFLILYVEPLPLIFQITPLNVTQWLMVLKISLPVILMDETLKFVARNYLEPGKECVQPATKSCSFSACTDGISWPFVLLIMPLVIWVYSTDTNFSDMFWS
Assay: pull-down; PA-SERCA2b (50 pmol) incubated with FLAG–TER (125 pmol) immobilised on anti-FLAG mAb resin, or resin alone, 4 °C 2 h; buffer H (50 mM Hepes–NaOH pH 7.0, 100 mM NaCl, 1 mM MgCl2, 5 mM EGTA, 1% DDM, 20% glycerol) with or without 100 nM free Ca2+; CBB staining; also 0.25 uM PA-SERCA2b pretreated with 2.5 uM thapsigargin (less pulled down)
Conditions: both partners purified

binding result: binds
B1: FLAG–TER (recombinant TER with an N-terminal FLAG-tag), from insect cells (enzyme, human, UniProt Q9NZ01 1-308, looked up)
chain: MKHYEVEILDAKTREKLCFLDKVEPHATIAEIKNLFTKTHPQWYPARQSLRLDPKGKSLKDEDVLQKLPVGTTATLYFRDLGAQISWVTVFLTEYAGPLFIYLLFYFRVPFIYGHKYDFTSSRHTVVHLACICHSFHYIKRLLETLFVHRFSHGTMPLRNIFKNCTYYWGFAAWMAYYINHPLYTPPTYGAQQVKLALAIFVICQLGNFSIHMALRDLRPAGSKTRKIPYPTKNPFTWLFLLVSCPNYTYEVGSWIGFAIMTQCLPVALFSLVGFTQMTIWAKGKHRSYLKEFRDYPPLRMPIIPFLL
notes: human trans-2-enoyl-CoA reductase (TER); cDNA in the pFastBacFLAGa vector; not shown: FLAG, N-terminal, kept
